The values below come from US20100184709.

The data set addresses T1, Ac-LRSR-amc.
T1 chain: LRSR

B1: recombinant purified GST-Malt1 protein, oligomerized by binding to glutathione sepharose (protein)
chain: MSLLGDPLQALPPSAAPTGPLLAPPAGATLNRLREPLLRRLSELLDQAPEGRGWRRLAELAGSRGRLRLSCLDLEQCSLKVLEPEGSPSLCLLKLMGEKGCTVTELSDFLQAMEHTEVLQLLSPPGIKITVNPESKAVLAGQFVKLCCRATGHPFVQYQWFKMNKEIPNGNTSELIFNAVHVKDAGFYVCRVNNNFTFEFSQWSQLDVCDIPESFQRSVDGVSESKLQICVEPTSQKLMPGSTLVLQCVAVGSPIPHYQWFKNELPLTHETKKLYMVPYVDLEHQGTYWCHVYNDRDSQDSKKVEIIIGRTDEAVECTEDELNNLGHPDNKEQTTDQPLAKDKVALLIGNMNYREHPKLKAPLVDVYELTNLLRQLDFKVVSLLDLTEYEMRNAVDEFLLLLDKGVYGLLYYAGHGYENFGNSFMVPVDAPNPYRSENCLCVQNILKLMQEKETGLNVFLLDMCRKRNDYDDTIPILDALKVTANIVFGYATCQGAEAFEIQHSGLANGIFMKFLKDRLLEDKKITVLLDEVAEDMGKCHLTKGKQALEIRSSLSEKRALTDPIQGTEYSAESLVRNLQWAKAHELPESMCLKFDCGVQIQLGFAAEFSNVMIIYTSIVYKPPEIIMCDAYVTDFPLDLDIDPKDANKGTPEETGSYLVSKDLPKHCLYTRLSSLQKLKEHLVFTVCLSYQYSGLEDTVEDKQEVNVGKPLIAKLDMHRGLGRKTCFQTCLMSNGPYQSSAATSGGAGHYHSLQDPFHGVYHSHPGNPSNVTPADSCHCSRTPDAFISSFAHHASCHFSRSNVPVETTDEIPFSFSDRLRISEK
Consider B1, for which the “LRSR-amc cleavage activity of recombinant enzyme (fluorescence)” value is recorded as “recombinant purified GST-Malt1 protein, oligomerized by binding to glutathione sepharose, was tested for LRSR-amc clavage activity”.
